± gives the uncertainty stated by the source.
Each sequence was assayed on HEK293T (assay: plasma membrane surface immunostaining intensity (anti-HA, deep receptor scanning) (arbitrary fluorescence units); higher = higher plasma membrane expression). Conditions: GPCR class: A.

Sequence | plasma membrane surface immunostaining intensity
MVPHLLLLCLLPLVRATEPHEGRADEQSAEAALAVPNASHFFSWNNYTFSDWQNFVGRRRYGAESQNPTVKALLIVAYSFIIVFSLFGNVLVCHVIFKNQRMHSATSLFIVNLAVADIMITLLNTPFTLVRFVNSTWIFGKGMCHVSRFAQYCSLHVSALTLTAIAVDRHQVIMHPLKPRISITKGVIYIAVIWTMATFFSLPHAICQKLFTFKYSEDIVRSLCLPDFPEPADLFWKYLDLATFILLYILPLLIISVAYARVAKKLWLCNMIGDVTTEQYFALRRKKKKTIKMLMLVVVLFALCWFPLNCYVLLLSSKVIRTNNALYFAFHWFAMSSTCYNPFIYCWLNENFRIELKALLSMCQRPPKPQEDRPPSPVPSFRVAWTEKNDGQRAPLANNLLPTSQLQSGKTDLSSVEPIVTMS [GPR83] | 490 ± 39
MAETSALPTGFGELEVLAVGMVLLVEALSGLSLNTLTIFSFCKTPELRTPCHLLVLSLALADSGISLNALVAATSSLLRRWPYGSDGCQAHGFQGFVTALASICSSAAIAWGRYHHYCTRSQLAWNSAVSLVLFVWLSSAFWAALPLLGWGHYDYEPLGTCCTLDYSKGDRNFTSFLFTMSFFNFAMPLFITITSYSLMEQKLGKSGHLQVNTTLPARTLLLGWGPYAILYLYAVIADVTSISPKLQMVPALIAKMVPTINAINYALGNEMVCRGIWQCLSPQKREKDRTK [RGR] | 125 ± 16
MEDFNMESDSFEDFWKGEDLSNYSYSSTLPPFLLDAAPCEPESLEINKYFVVIIYALVFLLSLLGNSLVMLVILYSRVGRSVTDVYLLNLALADLLFALTLPIWAASKVNGWIFGTFLCKVVSLLKEVNFYSGILLLACISVDRYLAIVHATRTLTQKRYLVKFICLSIWGLSLLLALPVLLFRRTVYSSNVSPACYEDMGNNTANWRMLLRILPQSFGFIVPLLIMLFCYGFTLRTLFKAHMGQKHRAMRVIFAVVLIFLLCWLPYNLVLLADTLMRTQVIQETCERRNHIDRALDATEILGILHSCLNPLIYAFIGQKFRHGLLKILAIHGLISKDSLPKDSRPSFVGSSSGHTSTTL [CXCR2] | 266 ± 3.4
MNVSGCPGAGNASQAGGGGGWHPEAVIVPLLFALIFLVGTVGNTLVLAVLLRGGQAVSTTNLFILNLGVADLCFILCCVPFQATIYTLDGWVFGSLLCKAVHFLIFLTMHASSFTLAAVSLDRYLAIRYPLHSRELRTPRNALAAIGLIWGLSLLFSGPYLSYYRQSQLANLTVCHPAWSAPRRRAMDICTFVFSYLLPVLVLGLTYARTLRYLWRAVDPVAAGSGARRAKRKVTRMILIVAALFCLCWMPHHALILCVWFGQFPLTRATYALRILSHLVSYANSCVNPIVYALVSKHFRKGFRTICAGLLGRAPGRASGRVCAAARGTHSGSVLERESSDLLHMSEAAGALRPCPGASQPCILEPCPGPSWQGPKAGDSILTVDVA [GALR2] | 2060 ± 420
MDFLNSSDQNLTSEELLNRMPSKILVSLTLSGLALMTTTINSLVIAAIIVTRKLHHPANYLICSLAVTDFLVAVLVMPFSIVYIVRESWIMGQVVCDIWLSVDITCCTCSILHLSAIALDRYRAITDAVEYARKRTPKHAGIMITIVWIISVFISMPPLFWRHQGTSRDDECIIKHDHIVSTIYSTFGAFYIPLALILILYYKIYRAAKTLYHKRQASRIAKEEVNGQVLLESGEKSTKSVSTSYVLEKSLSDPSTDFDKIHSTVRSLRSEFKHEKSWRRQKISGTRERKAATTLGLILGAFVICWLPFFVKELVVNVCDKCKISEEMSNFLAWLGYLNSLINPLIYTIFNEDFKKAFQKLVRCRC [HTR1F] | 2040 ± 280
MRLSAGPDAGPSGNSSPWWPLATGAGNTSREAEALGEGNGPPRDVRNEELAKLEIAVLAVTFAVAVLGNSSVLLALHRTPRKTSRMHLFIRHLSLADLAVAFFQVLPQMCWDITYRFRGPDWLCRVVKHLQVFGMFASAYMLVVMTADRYIAVCHPLKTLQQPARRSRLMIAAAWVLSFVLSTPQYFVFSMIEVNNVTKARDCWATFIQPWGSRAYVTWMTGGIFVAPVVILGTCYGFICYNIWCNVRGKTASRQSKGAEQAGVAFQKGFLLAPCVSSVKSISRAKIRTVKMTFVIVTAYIVCWAPFFIIQMWSVWDPMSVWTESENPTITITALLGSLNSCCNPWIYMFFSGHLLQDCVQSFPCCQNMKEKFNKEDTDSMSRRQTFYSNNRSPTNSTGMWKDSPKSSKSIKFIPVST [AVPR1A] | 497 ± 41
MPSKSLSNLSVTTGANESGSVPEGWERDFLPASDGTTTELVIRCVIPSLYLLIITVGLLGNIMLVKIFITNSAMRSVPNIFISNLAAGDLLLLLTCVPVDASRYFFDEWMFGKVGCKLIPVIQLTSVGVSVFTLTALSADRYRAIVNPMDMQTSGALLRTCVKAMGIWVVSVLLAVPEAVFSEVARISSLDNSSFTACIPYPQTDELHPKIHSVLIFLVYFLIPLAIISIYYYHIAKTLIKSAHNLPGEYNEHTKKQMETRKRLAKIVLVFVGCFIFCWFPNHILYMYRSFNYNEIDPSLGHMIVTLVARVLSFGNSCVNPFALYLLSESFRRHFNSQLCCGRKSYQERGTSYLLSSSAVRMTSLKSNAKNMVTNSVLLNGHSMKQEMAL [NMBR] | 2430 ± 1200

Same assay, conditions: GPCR class: A (Olfactory)

Sequence | plasma membrane surface immunostaining intensity
MSGTNQSSVSEFLLLGLSRQPQQQHLLFVFFLSMYLATVLGNLLIILSVSIDSCLHTPMYFFLSNLSFVDICFSFTTVPKMLANHILETQTISFCGCLTQMYFVFMFVDMDNFLLAVMAYDHFVAVCHPLHYTAKMTHQLCALLVAGLWVVANLNVLLHTLLMAPLSFCADNAITHFFCDVTPLLKLSCSDTHLNEVIILSEGALVMITPFLCILASYMHITCTVLKVPSTKGRWKAFSTCGSHLAVVLLFYSTIIAVYFNPLSSHSAEKDTMATVLYTVVTPMLNPFIYSLRNRYLKGALKKVVGRVVFSV [OR1F1] | 278 ± 120
MPNFTDVTEFTLLGLTCRQELQVLFFVVFLAVYMITLLGNIGMIILISISPQLQSPMYFFLSHLSFADVCFSSNVTPKMLENLLSETKTISYVGCLVQCYFFIAVVHVEVYILAVMAFDRYMAGCNPLLYGSKMSRTVCVRLISVPYVYGFSVSLICTLWTYGLYFCGNFEINHFYCADPPLIQIACGRVHIKEITMIVIAGINFTYSLSVVLISYTLIVVAVLRMRSADGRRKAFSTCGSHLTAVSMFYGTPIFMYLRRPTEESVEQGKMVAVFYTTVIPMLNPMIYSLRNKDVKEAVNKAITKTYVRQ [OR5M9] | 133 ± 54
MASPSNDSTAPVSEFLLICFPNFQSWQHWLSLPLSLLFLLAMGANTTLLITIQLEASLHQPLYYLLSLLSLLDIVLCLTVIPKVLAIFWFDLRSISFPACFLQMFIMNSFLTMESCTFMVMAYDRYVAICHPLRYPSIITDQFVARAVVFVIARNAFVSLPVPMLSARLRYCAGNIIKNCICSNLSVSKLSCDDITFNQLYQFVAGWTLLGSDLILIVISYSFILKVVLRIKAEGAVAKALSTCGSHFILILFFSTVLLVLVITNLARKRIPPDVPILLNILHHLIPPALNPIVYGVRTKEIKQGIQNLLKRL [OR56A4] | 419 ± 210
MKANYSAEERFLLLGFSDWPSLQPVLFALVLLCYLLTLTGNSALVLLAVRDPRLHTPMYYFLCHLALVDAGFTTSVVPPLLANLRGPALWLPRSHCTAQLCASLALGSAECVLLAVMALDRAAAVCRPLRYAGLVSPRLCRTLASASWLSGLTNSVAQTALLAERPLCAPRLLDHFICELPALLKLACGGDGDTTENQMFAARVVILLLPFAVILASYGAVARAVCCMRFSGGRRRAVGTCGSHLTAVCLFYGSAIYTYLQPAQRYNQARGKFVSLFYTVVTPALNPLIYTLRNKKVKGAARRLLRSLGRGQAGQ [OR2I1P] | 132 ± 5.4
MTILLNSSLQRATFFLTGFQGLEGLHGWISIPFCFIYLTVILGNLTILHVICTDATLHGPMYYFLGMLAVTDLGLCLSTLPTVLGIFWFDTREIGIPACFTQLFFIHTLSSMESSVLLSMSIDRYVAVCNPLHDSTVLTPACIVKMGLSSVLRSALLILPLPFLLKRFQYCHSHVLAHAYCLHLEIMKLACSSIIVNHIYGLFVVACTVGVDSLLIFLSYALILRTVLSIASHQERLRALNTCVSHICAVLLFYIPMIGLSLVHRFGEHLPRVVHLFMSYVYLLVPPLMNPIIYSIKTKQIRQRIIKKFQFIKSLRCFWKD [OR51G1] | 116 ± 20
MGRWVNQSYTDGFFLLGIFSHSQTDLVLFSAVMVVFTVALCGNVLLIFLIYLDAGLHTPMYFFLSQLSLMDLMLVCNIVPKMAANFLSGRKSISFVGCGIQIGFFVSLVGSEGLLLGLMAYDRYVAVSHPLHYPILMNQRVCLQITGSSWAFGIIDGVIQMVAAMGLPYCGSRSVDHFFCEVQALLKLACADTSLFDTLLFACCVFMLLLPFSIIMASYACILGAVLRIRSAQAWKKALATCSSHLTAVTLFYGAAMFMYLRPRRYRAPSHDKVASIFYTVLTPMLNPLIYSLRNGEVMGALRKGLDRCRIGSQH [OR2V1] | 153 ± 28
MEEENATLLTEFVLTGFLYQPQWKIPLFLAFLVIYLITIMGNLGLIAVIWKDPHLHIPMYLLLGNLAFVDALLSSSVTLKMLINFLAKSKMISLSECKIQLFSFAISVTTECFLLATMAYDRYVAICKPLLYPAIMTNGLCIRLLILSYVGGLLHALIHEGFLFRLTFCNSNIIQHFYCDIIPLLKISYTDSSINFLMVFIFAGSIQVFTIGTVLISYIFVLYTILKKKSVKGMRKAFSTCGAHLLSVSLYYGPLAFMYMGSASPQADDQDMMESLFYTVIVPLLNPMIYSLRNKQVIASFTKMFKRNDV [OR5H14] | 116 ± 19
MEARNQTAISKFLLLGLIEDPELQPVLFSLFLSMYLVTILGNLLILLAVISDSHLHTPMYFFLSNLSFLDICLSTTTIPKMLVNIQAQNRSITYSGCLTQICFVLFFAGLENCLLAAMAYDRYVAICHPLRYTVIMNPRLCGLLILLSLLTSVVNALLLSLMVLRLSFCTDLEIPLFFCELAQVIQLTCSDTLINNILIYFAACIFGGVPLSGIILSYTQITSCVLRMPSASGKHKAVSTCGSHLSIVLLFYGAGLGVYISSVVTDSPRKTAVASVMYSVFPQMVNPFIYSLRNKDMKGTLRKFIGRIPSLLWCAICFGFRFLE [OR7G2] | 165 ± 53

Same assay, conditions: GPCR class: B

Sequence | plasma membrane surface immunostaining intensity
MQGPLLLPGLCFLLSLFGAVTQKTKTSCAKCPPNASCVNNTHCTCNHGYTSGSGQKLFTFPLETCNDINECTPPYSVYCGFNAVCYNVEGSFYCQCVPGYRLHSGNEQFSNSNENTCQDTTSSKTTEGRKELQKIVDKFESLLTNQTLWRTEGRQEISSTATTILRDVESKVLETALKDPEQKVLKIQNDSVAIETQAITDNCSEERKTFNLNVQMNSMDIRCSDIIQGDTQGPSAIAFISYSSLGNIINATFFEEMDKKDQVYLNSQVVSAAIGPKRNVSLSKSVTLTFQHVKMTPSTKKVFCVYWKSTGQGSQWSRDGCFLIHVNKSHTMCNCSHLSSFAVLMALTSQEEDPVLTVITYVGLSVSLLCLLLAALTFLLCKAIRNTSTSLHLQLSLCLFLAHLLFLVGIDRTEPKVLCSIIAGALHYLYLAAFTWMLLEGVHLFLTARNLTVVNYSSINRLMKWIMFPVGYGVPAVTVAISAASWPHLYGTADRCWLHLDQGFMWSFLGPVCAIFSANLVLFILVFWILKRKLSSLNSEVSTIQNTRMLAFKATAQLFILGCTWCLGLLQVGPAAQVMAYLFTIINSLQGFFIFLVYCLLSQQVQKQYQKWFREIVKSKSESETYTLSSKMGPDSKPSEGDVFPGQVKRKY [ADGRE3] | 344 ± 13

Same assay, conditions: GPCR class: Taste

Sequence | plasma membrane surface immunostaining intensity
MNGDHMVLGSSVTDKKAIILVTILLLLRLVAIAGNGFITAALGVEWVLRRMLLPCDKLLVSLGASRFCLQSVVMGKTIYVFLHPMAFPYNPVLQFLAFQWDFLNAATLWSSTWLSVFYCVKIATFTHPVFFWLKHKLSGWLPWMLFSSVGLSSFTTILFFIGNHRMYQNYLRNHLQPWNVTGDSIRSYCEKFYLFPLKMITWTMPTAVFFICMILLITSLGRHRKKALLTTSGFREPSVQAHIKALLALLSFAMLFISYFLSLVFSAAGIFPPLDFKFWVWESVIYLCAAVHPIILLFSNCRLRAVLKSRRSSRCGTP [TAS2R60] | 137 ± 36
